Test results from article PMC12381204.

What was measured:
[1] = molecular target: SARS-CoV-2 Nucleocapsid protein (N), full length, unmodified (SARS-CoV-2) (UniProt P0DTC9); assay: […]; 20 mM Tris-HCl, 150 mM NaCl, pH 7.5, 37 °C
[2] = molecular target: Phosphorylated SARS-CoV-2 Nucleocapsid protein (pN), full length, phosphorylated in vitro with GSK-3β and SRPK1 (SARS-CoV-2) (UniProt P0DTC9); assay: […]; 20 mM Tris-HCl, 150 mM NaCl, pH 7.5, 37 °C
[3] = molecular target: Membrane (M) protein C-terminal endodomain, 104-222 (UniProt P0DTC5)
[4] = molecular target: non-structural protein 3 (Nsp3) ubiquitin-like domain 1 (Ubl1), 1-111

Row | Substance | partition coefficient [1] | partition coefficient [2] | other: partition coefficient [3] | other: partition coefficient [4]
1 | 6xHis-GFP-Nsp3^1-111, ubiquitin-like domain 1 (Ubl1) of SARS-CoV-2 non-structural protein 3 (Nsp3) (domain or fragment) | 12.6 | 2.2 |  | 
2 | Nucleocapsid protein (N) (from UniProt P0DTC9) |  |  | lost; reference 9.8 ± 0.3 | weaker; reference 12.6 ± 0.1
3 | 6xHis-GFP-M^104-222, C-terminal endodomain of the SARS-CoV-2 Membrane (M) protein (from UniProt P0DTC5 104-222) (domain or fragment) | 9.8 | 0.3 |  | 
